Assay [1] addresses recombinant human interferon α2b (human) (UniProt P01563). As to the kind of experiment: BLI. On the technique in general: Biolayer interferometry detects binding as a change in optical thickness at a sensor tip.
For assay [2] the target is unchanged. As to the kind of experiment: far-Western, overlay or dot blot.
The target is the same in assay [3]. As to the kind of experiment: lateral-flow immunochromatographic strip.

The results in this text go back to article PMC9091920 (Journal of Pharmaceutical Analysis, 2021).

One may read the Kd as a measure of binding affinity in units of concentration.

B1: nanobody I22 (His-labeled, purified) (VHH)
VHH: QVQLVESGGGLVQPGGSLRLSCVASGFTFDSATMSWHRQAPGREREFVAMTSGGGMINYANSVKGRFTISRDNAKNTVYLQMDSLKPEDTAVYYCHRLGTFHWGQGTQVTVSS
On to B1, for which the Kd in assay [1] amounted to 2.06 nM. The limit of detection in assay [2] stood at 31.2 ng; in assay [3], 1 µg/mL.
